According to PMC4117528:

Key:
[1] = target: PhaP from Azotobacter sp. FA8 (Azotobacter sp. FA8); test: SEC-MALS; 90° static light scattering (PD2010) with differential refractometer in tandem with analytical Superdex 200; 25 µM protein; 20 mM sodium phosphate pH 7.4, 150 mM NaCl, 1 mM DTT; average molecular weight of the oligomer
[2] = SEC; analytical Superdex 200 calibrated with globular proteins; 25 µM protein; 20 mM sodium phosphate, 50 mM NaCl pH 7.3, 1 mM DTT

Substance | stoichiometry N [1] | apparent number of monomers (SEC, globular calibration) [2]
PhaP from Azotobacter sp. FA8 (natural protein) | 4 | –
PhaP from Azotobacter sp. FA8 | – | This molecular weight corresponds to 9 monomers
